In paper PMC3675498:
Like-named read-outs stand apart in the source and are kept apart here.

Experiments:
Assay in all cases: EMSA
[1] = molecular target: T1, H3 octamer (H3/H4/H2A/H2B), splits to hemisome (UniProt P61830;P02309;P04911;P02293 2-136;2-103;2-132;2-131)
Cse4-Δ90 octamer = Cse4-Δ90 octamer (UniProt P36012;P02309;P04911;P02293 91-229;2-103;2-132;2-131)
[2] = molecular target: T2, Cse4 octamer (Cse4/H4/H2A/H2B), splits to hemisome (UniProt P36012;P02309;P04911;P02293 1-229;1-103;1-132;1-131)
T2 sequence (P36012 whole entry, chain 1 of 2): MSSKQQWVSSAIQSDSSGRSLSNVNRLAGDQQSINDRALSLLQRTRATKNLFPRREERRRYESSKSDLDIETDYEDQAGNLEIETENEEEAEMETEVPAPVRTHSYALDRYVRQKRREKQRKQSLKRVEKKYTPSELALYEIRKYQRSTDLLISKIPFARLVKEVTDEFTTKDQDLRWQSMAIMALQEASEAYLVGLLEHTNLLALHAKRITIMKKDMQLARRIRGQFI
T2 sequence (P02293 whole entry, chain 4 of 2): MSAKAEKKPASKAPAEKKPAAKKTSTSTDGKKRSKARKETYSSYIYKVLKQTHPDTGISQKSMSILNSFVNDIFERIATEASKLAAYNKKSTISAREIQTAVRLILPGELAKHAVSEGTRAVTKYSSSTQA

[3] = molecular target: T1, H3 octamer (H3/H4/H2A/H2B), splits to …; remark: listed apart in the source
[4] = molecular target: T2, Cse4 octamer (Cse4/H4/H2A/H2B), splits …; remark: listed apart in the source

T1 sequence (P04911 2-132, chain 3 of 2): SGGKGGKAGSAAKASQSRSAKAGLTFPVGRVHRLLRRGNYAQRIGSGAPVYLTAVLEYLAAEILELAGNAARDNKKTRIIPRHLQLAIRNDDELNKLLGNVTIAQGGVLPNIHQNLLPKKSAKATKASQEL
T1 sequence (P02293 2-131, chain 4 of 2): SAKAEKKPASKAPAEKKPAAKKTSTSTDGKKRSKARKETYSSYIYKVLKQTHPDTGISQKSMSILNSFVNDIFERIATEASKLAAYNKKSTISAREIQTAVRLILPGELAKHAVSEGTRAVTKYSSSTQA
Cse4-Δ90 octamer, sequence (P04911 2-132, stated change not applied, chain 3 of 2): as the sequence (P04911 2-132, chain 3 of 2) above
Cse4-Δ90 octamer, sequence (P02293 2-131, stated change not applied, chain 4 of 2): as the sequence (P02293 2-131, chain 4 of 2) above

| Binder | binding result [1] | binding result (Cse4-Δ90 octamer) | binding result [2] | binding result [3] | binding result [4] |
| --- | --- | --- | --- | --- | --- |
| α62 (dsDNA) DNA 1: CCTGCAGATACTACCAAAAGTGTATTTGGAAACTGCTCCATCAAAAGGCATGTTCAGCTGGA DNA 2: TCCAGCTGAACATGCCTTTTGATGGAGCAGTTTCCAAATACACTTTTGGTAGTATCTGCAGG | binds | binds | binds |  |  |
| Cen4 CDEII 78 bp (dsDNA) DNA 1: CTTATAATCAACTTTTTTAAAAATTTAAAATACTTTTTTATTTTTTATTTTTAAACATAAATGAAATAATTTATTTAT DNA 2: ATAAATAAATTATTTCATTTATGTTTAAAAATAAAAAATAAAAAAGTATTTTAAATTTTTAAAAAAGTTGATTATAAG |  |  |  | binds | binds |
